# Reference: patent US20160137709A1 (AMRYT PHARMACEUTICALS, published 2016)
# T1: chimeric Hu-Leptin/Mu-EPO receptor (human; mouse, UniProt P48357 22-839; P14753 250-507)
# T1 sequence (looked up): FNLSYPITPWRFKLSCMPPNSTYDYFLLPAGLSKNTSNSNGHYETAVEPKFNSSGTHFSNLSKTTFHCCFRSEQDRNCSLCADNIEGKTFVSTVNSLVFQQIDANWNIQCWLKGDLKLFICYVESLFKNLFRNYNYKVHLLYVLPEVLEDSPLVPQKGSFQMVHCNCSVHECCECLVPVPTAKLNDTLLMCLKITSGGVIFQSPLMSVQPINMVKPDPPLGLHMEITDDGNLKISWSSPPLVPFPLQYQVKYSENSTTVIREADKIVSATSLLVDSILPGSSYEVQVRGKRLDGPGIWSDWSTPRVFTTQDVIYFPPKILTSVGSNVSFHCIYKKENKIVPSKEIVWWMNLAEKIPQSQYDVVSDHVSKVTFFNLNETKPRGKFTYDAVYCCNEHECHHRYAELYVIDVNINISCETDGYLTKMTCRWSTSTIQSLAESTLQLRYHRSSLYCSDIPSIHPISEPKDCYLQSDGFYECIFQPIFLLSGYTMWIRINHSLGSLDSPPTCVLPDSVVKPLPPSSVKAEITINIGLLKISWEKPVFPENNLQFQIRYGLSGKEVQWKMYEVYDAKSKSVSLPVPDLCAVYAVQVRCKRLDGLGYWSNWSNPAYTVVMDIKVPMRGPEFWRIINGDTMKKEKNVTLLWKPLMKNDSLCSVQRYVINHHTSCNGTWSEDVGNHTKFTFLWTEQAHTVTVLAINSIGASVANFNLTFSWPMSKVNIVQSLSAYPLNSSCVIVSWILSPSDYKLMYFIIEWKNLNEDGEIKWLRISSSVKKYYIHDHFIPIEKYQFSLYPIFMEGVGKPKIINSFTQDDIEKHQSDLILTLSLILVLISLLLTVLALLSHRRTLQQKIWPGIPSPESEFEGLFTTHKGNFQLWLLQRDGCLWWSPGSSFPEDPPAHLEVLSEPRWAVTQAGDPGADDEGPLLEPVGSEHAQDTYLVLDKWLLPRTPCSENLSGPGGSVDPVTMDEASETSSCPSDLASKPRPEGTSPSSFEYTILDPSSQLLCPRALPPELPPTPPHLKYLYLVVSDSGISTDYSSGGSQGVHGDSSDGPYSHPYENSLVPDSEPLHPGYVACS
# How the values were obtained:
# [1] = target: T1, chimeric Hu-Leptin/Mu-EPO receptor; assay: cell-based or functional assay
# Dog serum albumin = target: T2, Dog serum albumin (dog, UniProt P49822 25-608); assay: SPR (BioRad ProteOn XPR36), albumin amine-coupled on GLC chip, polypeptide as analyte, 25 C
# T2 construct: Amine-coupled to the GLC sensor chip; also called Dog SA
# T2 sequence (P49822 25-608 limits assumed): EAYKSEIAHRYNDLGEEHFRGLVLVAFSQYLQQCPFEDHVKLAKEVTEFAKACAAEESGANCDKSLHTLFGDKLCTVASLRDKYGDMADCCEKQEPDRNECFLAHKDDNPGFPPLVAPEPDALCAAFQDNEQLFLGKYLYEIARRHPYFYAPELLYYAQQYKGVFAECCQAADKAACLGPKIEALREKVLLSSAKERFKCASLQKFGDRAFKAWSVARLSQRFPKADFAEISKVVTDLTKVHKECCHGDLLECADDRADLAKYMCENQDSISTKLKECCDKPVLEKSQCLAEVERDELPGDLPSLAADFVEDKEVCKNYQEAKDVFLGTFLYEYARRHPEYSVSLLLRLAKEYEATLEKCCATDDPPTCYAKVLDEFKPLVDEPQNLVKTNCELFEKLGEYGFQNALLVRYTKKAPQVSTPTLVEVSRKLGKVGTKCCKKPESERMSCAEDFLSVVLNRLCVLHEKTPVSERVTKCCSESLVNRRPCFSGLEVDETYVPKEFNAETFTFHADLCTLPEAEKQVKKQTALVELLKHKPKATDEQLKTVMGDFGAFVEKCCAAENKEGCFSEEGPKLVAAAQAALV
# Description: (§1) All studies were conducted on a BioRad ProteOn XPR36 system using a GLC sensor chip at 25 degrees C. For amine coupling the GLC chip was activated for 5 minutes using a 1:1 mixture of sulfo-NHS/EDC diluted 30-fold from the initial stock in water as shown below. Each albumin sample was diluted to 25 ug/ml in 10 mM Na Acetate pH 5.0 and injected for 5 minutes over separate sensor surfaces. Each surface was then blocked with 1 M ethanolamine pH 8.5. Each albumin was coupled at a density of 2000-5000 in resonance units.
# (§2) The binding of an engineered polypeptide was tested using 5 nM as the highest concentration in a three-fold dilution series. The running buffer contained 10 mM HEPES pH 7.4, 150 mM NaCl, 3 mM EDTA and 0.005% tween-20. All samples were tested using a 3-fold dilution series. Each concentration series was tested in duplicate. The dissociation phase for the highest concentration was monitored for 3 hours.
# Rat serum albumin = target: T3, Rat serum albumin (rat, UniProt P02770 25-608); assay: as above
# T3 construct: Amine-coupled to the GLC sensor chip; also called Rat SA; RSA
# T3 sequence (P02770 25-608 limits assumed): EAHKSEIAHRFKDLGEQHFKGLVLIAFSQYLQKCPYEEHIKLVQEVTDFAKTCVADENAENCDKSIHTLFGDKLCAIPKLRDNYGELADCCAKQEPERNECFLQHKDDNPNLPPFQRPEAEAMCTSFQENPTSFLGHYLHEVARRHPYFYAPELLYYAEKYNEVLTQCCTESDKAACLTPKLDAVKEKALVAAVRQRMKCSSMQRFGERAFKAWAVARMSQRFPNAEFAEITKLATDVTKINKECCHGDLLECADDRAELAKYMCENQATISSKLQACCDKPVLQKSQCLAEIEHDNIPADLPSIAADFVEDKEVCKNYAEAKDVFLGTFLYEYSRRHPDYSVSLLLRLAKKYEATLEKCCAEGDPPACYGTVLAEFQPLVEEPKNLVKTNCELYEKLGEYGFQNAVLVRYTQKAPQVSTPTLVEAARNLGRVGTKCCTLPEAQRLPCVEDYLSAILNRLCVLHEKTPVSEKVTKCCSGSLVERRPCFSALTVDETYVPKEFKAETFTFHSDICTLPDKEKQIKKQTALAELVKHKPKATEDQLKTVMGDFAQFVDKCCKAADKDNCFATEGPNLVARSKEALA
# Description: as §1, §2
# Mouse serum albumin = target: T4, Mouse serum albumin (mouse, UniProt P07724 25-608); assay: as above
# T4 construct: Amine-coupled to the GLC sensor chip; also called Mouse SA
# Description: as §1, §2
# Monkey serum albumin = target: T5, Monkey serum albumin (monkey); assay: as above
# T5 construct: Amine-coupled to the GLC sensor chip; also called Monkey SA
# T5 sequence (A2V9Z4 25-608): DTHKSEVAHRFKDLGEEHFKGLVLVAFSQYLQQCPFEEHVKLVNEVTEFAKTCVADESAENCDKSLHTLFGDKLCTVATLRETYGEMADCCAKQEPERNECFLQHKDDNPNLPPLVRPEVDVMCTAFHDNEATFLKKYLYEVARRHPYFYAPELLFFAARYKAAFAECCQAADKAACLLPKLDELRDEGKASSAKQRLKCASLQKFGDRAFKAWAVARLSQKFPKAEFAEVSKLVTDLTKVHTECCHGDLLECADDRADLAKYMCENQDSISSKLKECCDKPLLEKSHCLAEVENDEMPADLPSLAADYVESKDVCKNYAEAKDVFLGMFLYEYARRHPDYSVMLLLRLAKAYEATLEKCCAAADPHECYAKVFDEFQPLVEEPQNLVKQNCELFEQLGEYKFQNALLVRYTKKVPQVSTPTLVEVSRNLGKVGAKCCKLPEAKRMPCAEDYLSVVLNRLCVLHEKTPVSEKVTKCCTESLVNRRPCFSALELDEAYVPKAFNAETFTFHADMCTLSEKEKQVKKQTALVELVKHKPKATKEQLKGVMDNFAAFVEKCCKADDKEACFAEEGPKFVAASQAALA
# Description: as §1, §2
# Human serum albumin = target: T6, Human serum albumin (human, UniProt P02768 25-609); assay: as above
# T6 construct: Amine-coupled to the GLC sensor chip; also called Human SA; HSA
# T6 sequence (P02768 25-609 limits assumed): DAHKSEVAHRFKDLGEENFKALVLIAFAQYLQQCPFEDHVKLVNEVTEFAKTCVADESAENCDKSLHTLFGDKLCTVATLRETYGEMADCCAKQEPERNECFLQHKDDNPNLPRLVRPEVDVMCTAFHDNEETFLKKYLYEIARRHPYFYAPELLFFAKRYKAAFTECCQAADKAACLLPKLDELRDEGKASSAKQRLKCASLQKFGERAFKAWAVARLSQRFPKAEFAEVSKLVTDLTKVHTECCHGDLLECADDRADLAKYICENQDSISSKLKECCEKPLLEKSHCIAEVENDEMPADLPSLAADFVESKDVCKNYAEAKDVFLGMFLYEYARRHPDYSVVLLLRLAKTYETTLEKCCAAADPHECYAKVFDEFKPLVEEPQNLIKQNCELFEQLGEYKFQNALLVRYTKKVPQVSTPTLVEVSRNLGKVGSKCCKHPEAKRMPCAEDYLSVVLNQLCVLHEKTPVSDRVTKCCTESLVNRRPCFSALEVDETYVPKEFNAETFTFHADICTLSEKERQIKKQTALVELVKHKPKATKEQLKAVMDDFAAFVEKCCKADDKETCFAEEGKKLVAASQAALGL
# Description: as §1, §2
binder,measurement,setting,value
Cmpd 3 (SEQ ID NO: 55) (other) MVPIQKVQDDTKTLIKTIVTRINDISHTQSVSSKQKVTGLEFIPGLHPILTLSKMDQTLAVYQQILTSMPSRNVIQISNDLENLRDLLHVLAFSKSCHLPQASGLETLESLGGVLEASGYSTEVVALSRLQGSLQDMLQQLDLSPGCTGGGGSASLAEAKVLANRELDKYGVSDFYKRLINKAKTVEGVEALKLHILAALP,EC50 nM (Obeca STAT5 assay),[1],0.095 nM
Cmpd 1 (SEQ ID NO: 53) (other) MLAEAKVLANRELDKYGVSDFYKRLINKAKTVEGVEALKLHILAALPTGGGGASVPIQKVQDDTKTLIKTIVTRINDISHTQSVSSKQKVTGLEFIPGLHPILTLSKMDQTLAVYQQILTSMPSRNVIQISNDLENLRDLLHVLAFSKSCHLPQASGLETLESLGGVLEASGYSTEVVALSRLQGSLQDMLQQLDLSPGC,EC50 nM (Obeca STAT5 assay),[1],0.628 nM
Cmpd 9 (SEQ ID NO: 57) (other) MLAEAKVLANRELDKYGVSDFYKRLINKAKTVEGVEALKLHILAALPTGGGGSGGGSGGGSGGGSASISIEKIQADTKTLTKTIITRIIQLSTQNGVSTDQRVSGLDFIPGNQQFQNLADMDQTLAVYQQILSSLPMPDRTQISNDLENLRSLFALLATLKNCPFTRSDGLDTMEIWGGIVEESLYSTEVVTLDRLRKSLKNIEKQLDHIQGC,EC50 nM (Obeca STAT5 assay),[1],0.185 nM
Cmpd 18 (SEQ ID NO: 64) (other) MLAEAKVLANRELDKYGVSDYYKNIINRAKTVEGVRALKLHILAALPTGGGGSGGGSGGGSGGGSASVPIQKVQDDTKTLIKTIVTRINDISHTQSVSSKQKVTGLEFIPGLHPILTLSKMDQTLAVYQQILTSMPSRNVIQISNDLENLRDLLHVLAFSKSCHLPQASGLETLESLGGVLEASGYSTEVVALSRLQGSLQDMLQQLDLSPGC,EC50 nM (Obeca STAT5 assay),[1],0.322 nM
"Compound 2 (SEQ ID NO: 54) (other, also called Cmpd 2; ABD1-A500) MLAEAKVLANRELDKYGVSDFYKRLINKAKTVEGVEALKLHILAALPTGGGGSGGGSGGGSGGGSASVPIQKVQDDTKTLIKTIVTRINDISHTQSVSSKQKVTGLEFIPGLHPILTLSKMDQTLAVYQQILTSMPSRNVIQISNDLENLRDLLHVLAFSKSCHLPQASGLETLESLGGVLEASGYSTEVVALSRLQGSLQDMLQQLDLSPGC",EC50 nM (Obeca STAT5 assay),[1],0.53 nM
same,Kd,Dog serum albumin,358 pM
same,Kd,Rat serum albumin,33 pM
same,Kd,Mouse serum albumin,1970 pM
same,Kd,Monkey serum albumin,158 pM
same,Kd,Human serum albumin,56 pM
Cmpd 4 (SEQ ID NO: 56) (other) MVPIQKVQDDTKTLIKTIVTRINDISHTQSVSSKQKVTGLEFIPGLHPILTLSKMDQTLAVYQQILTSMPSRNVIQISNDLENLRDLLHVLAFSKSCHLPQASGLETLESLGGVLEASGYSTEVVALSRLQGSLQDMLQQLDLSPGCTGGGGSGGGSGGGSGGGSASLAEAKVLANRELDKYGVSDFYKRLINKAKTVEGVEALKLHILAALP,EC50 nM (Obeca STAT5 assay),[1],0.103 nM
Cmpd 16 (SEQ ID NO: 62) (other) MLAEAKVLANRELDKYGVSDFYKRLINKAKTVEGVEALKLHILAALPTGPIQRVQDDTKTLIKTIITRINDISPPQGVCSPRVAGLDFIPRVQSVRTLSGMDQILATYQQILTSLQSRNVIQISNDLENLRDLLHVLAFSKSCPVPRARGSDTIKGLGNVLRASVHSTEVVALSRLKAALQDMLRQLDRNPGC,EC50 nM (Obeca STAT5 assay),[1],0.411 nM
Cmpd 14 (SEQ ID NO: 60) (other) MLAEAKVLANRELDKYGVSDFYKRLINKAKTVEGVEALKLHILAALPTGGGGSGGGSGGGSGGGSASPIQRVQDDTKTLIKTIITRINDISPPQGVCSRPRVAGLDFIPRVQSVRTLSGMDQILATYQQILTSLQSRNVIQISNDLENLRDLLHVLAFSKSCPVPRARGSDTIKGLGNVLRASVHSTEVVALSRLKAALQDMLRQLDRNPGC,EC50 nM (Obeca STAT5 assay),[1],0.406 nM
"Compound 15 (SEQ ID NO: 61) (other, also called Cmpd 15; ABD1-HuSeal) MLAEAKVLANRELDKYGVSDFYKRLINKAKTVEGVEALKLHILAALPTGGGGSGGGSGGGSGGGSASPIQRVQDDTKTLIKTIITRINDISPPQGVSSRPRVAGLDFIPRVQSVRTLSGMDQILATYQQILTSLQSRNVIQISNDLENLRDLLHVLAFSKSCPVPRARGSDTIKGLGNVLRASVHSTEVVALSRLKAALQDMLRQLDRNPGC",EC50 nM (Obeca STAT5 assay),[1],0.427 nM
same,Kd,Dog serum albumin,40 pM
same,Kd,Rat serum albumin,< 2 pM
same,Kd,Mouse serum albumin,277 pM
same,Kd,Monkey serum albumin,17 pM
same,Kd,Human serum albumin,12 pM
